# Changes are numbered by the printed parent chain. In names and notes the source's numbering stands.
# B1: H183/L072 VH T28Q (antibody, name in Kabat numbering, V domains shown)
# VH: QVQLVESGGGLVQPGRSLRLSCAASGFQFSNAWMHWVRQAPGKGLEWVAQIKDKGNAYAAYYAPSVKGRFTISRDDSKNSIYLQMNSLKTEDTAVYYCHYVHYASASTVLPAFGVDAWGQGTTVTVSS
# VL: DIVMTQSPLSLPVTPGEPASISCQASQELVHMNRNTYLHWYQQKPGQAPRLLIYKVSNRFPGVPDRFSGSGSGTDFTLKISRVEAEDVGVYYCAQGTSVPFTFGQGTKLEIK
# B2: H183/L072 VH Y55K (antibody, name in Kabat numbering, V domains shown)
# VH: B1 VH with Q28T, Y58K
# VL: B1 VL
# B3: H183/L072 VH Y55N (antibody, name in Kabat numbering, V domains shown)
# VH: B1 VH with Q28T, Y58N
# VL: B1 VL
# B4: H183/L072 VH T28V (antibody, name in Kabat numbering, V domains shown)
# VH: B1 VH with Q28V
# VL: B1 VL
# B5: H183/L072 VH Y58D (antibody, name in Kabat numbering, V domains shown)
# VH: B1 VH with Q28T, Y61D
# VL: B1 VL
# B6: H183/L072 VH V95M (antibody, name in Kabat numbering, V domains shown)
# VH: B1 VH with Q28T, V101M
# VL: B1 VL
# B7: H183/L072 VH Y55L (antibody, name in Kabat numbering, V domains shown)
# VH: B1 VH with Q28T, Y58L
# VL: B1 VL
# B8: H183/L072 VH Y55H (antibody, name in Kabat numbering, V domains shown)
# VH: B1 VH with Q28T, Y58H
# VL: B1 VL
# B9: H183/L072 VH T100bA (antibody, name in Kabat numbering, V domains shown)
# VH: B1 VH with Q28T, T108A
# VL: B1 VL
# B10: H183/L072 VH Y58F (antibody, name in Kabat numbering, V domains shown)
# VH: B1 VH with Q28T, Y61F
# VL: B1 VL
# B11: H183/L072 VH W33Y (antibody, name in Kabat numbering, V domains shown)
# VH: B1 VH with Q28T, W33Y
# VL: B1 VL
# B12: H183/L072 VH T28R (antibody, name in Kabat numbering, V domains shown)
# VH: B1 VH with Q28R
# VL: B1 VL
# B13: H183/L072 VH V63M (antibody, name in Kabat numbering, V domains shown)
# VH: B1 VH with Q28T, V66M
# VL: B1 VL
# B14: H183/L072 VH V100cI (antibody, name in Kabat numbering, V domains shown)
# VH: B1 VH with Q28T, V109I
# VL: B1 VL
# B15: H183/L072 VH V95P (antibody, name in Kabat numbering, V domains shown)
# VH: B1 VH with Q28T, V101P
# VL: B1 VL
# B16: H183/L072 VH Y55A (antibody, name in Kabat numbering, V domains shown)
# VH: B1 VH with Q28T, Y58A
# VL: B1 VL
# B17: H183/L072 VH V63P (antibody, name in Kabat numbering, V domains shown)
# VH: B1 VH with Q28T, V66P
# VL: B1 VL
# B18: H183/L072 VH T28Y (antibody, name in Kabat numbering, V domains shown)
# VH: B1 VH with Q28Y
# VL: B1 VL
# B19: H183/L072 VH V100cM (antibody, name in Kabat numbering, V domains shown)
# VH: B1 VH with Q28T, V109M
# VL: B1 VL
# B20: H183/L072 VH V95I (antibody, name in Kabat numbering, V domains shown)
# VH: B1 VH with Q28T, V101I
# VL: B1 VL
# B21: H183/L072 VH V100iI (antibody, name in Kabat numbering, V domains shown)
# VH: B1 VH with Q28T, V115I
# VL: B1 VL
# B22: H183/L072 VH V100iM (antibody, name in Kabat numbering, V domains shown)
# VH: B1 VH with Q28T, V115M
# VL: B1 VL
# B23: H183/L072 VH T100bI (antibody, name in Kabat numbering, V domains shown)
# VH: B1 VH with Q28T, T108I
# VL: B1 VL
# B24: H183/L072 VH V100cL (antibody, name in Kabat numbering, V domains shown)
# VH: B1 VH with Q28T, V109L
# VL: B1 VL
# B25: H183/L072 VH Y55G (antibody, name in Kabat numbering, V domains shown)
# VH: B1 VH with Q28T, Y58G
# VL: B1 VL
# B26: H183/L072 VH V63I (antibody, name in Kabat numbering, V domains shown)
# VH: B1 VH with Q28T, V66I
# VL: B1 VL
# B27: H183/L072 VH Y58I (antibody, name in Kabat numbering, V domains shown)
# VH: B1 VH with Q28T, Y61I
# VL: B1 VL
# B28: H183/L072 VH Y58E (antibody, name in Kabat numbering, V domains shown)
# VH: B1 VH with Q28T, Y61E
# VL: B1 VL
# B29: H183/L072 VH T28W (antibody, name in Kabat numbering, V domains shown)
# VH: B1 VH with Q28W
# VL: B1 VL
# B30: H183/L072 VH V100iA (antibody, name in Kabat numbering, V domains shown)
# VH: B1 VH with Q28T, V115A
# VL: B1 VL
# B31: H183/L072 VH V63A (antibody, name in Kabat numbering, V domains shown)
# VH: B1 VH with Q28T, V66A
# VL: B1 VL
# B32: H183/L072 VH V100cA (antibody, name in Kabat numbering, V domains shown)
# VH: B1 VH with Q28T, V109A
# VL: B1 VL
# B33: H183/L072 VH Y55D (antibody, name in Kabat numbering, V domains shown)
# VH: B1 VH with Q28T, Y58D
# VL: B1 VL
# B34: H183/L072 VH T100bL (antibody, name in Kabat numbering, V domains shown)
# VH: B1 VH with Q28T, T108L
# VL: B1 VL
# B35: H183/L072 VH V100iL (antibody, name in Kabat numbering, V domains shown)
# VH: B1 VH with Q28T, V115L
# VL: B1 VL
# B36: H183/L072 VH V95A (antibody, name in Kabat numbering, V domains shown)
# VH: B1 VH with Q28T, V101A
# VL: B1 VL
# B37: H183/L072 VH Y58A (antibody, name in Kabat numbering, V domains shown)
# VH: B1 VH with Q28T, Y61A
# VL: B1 VL
# B38: H183/L072 VH Y55F (antibody, name in Kabat numbering, V domains shown)
# VH: B1 VH with Q28T, Y58F
# VL: B1 VL
# B39: H183/L072 VH V95L (antibody, name in Kabat numbering, V domains shown)
# VH: B1 VH with Q28T, V101L
# VL: B1 VL
# B40: H183/L072 VH Y58H (antibody, name in Kabat numbering, V domains shown)
# VH: B1 VH with Q28T, Y61H
# VL: B1 VL
# B41: H183/L072 VH Y55E (antibody, name in Kabat numbering, V domains shown)
# VH: B1 VH with Q28T, Y58E
# VL: B1 VL
# B42: H183/L072 VH V63L (antibody, name in Kabat numbering, V domains shown)
# VH: B1 VH with Q28T, V66L
# VL: B1 VL
# B43: H183/L072 VH Y55Q (antibody, name in Kabat numbering, V domains shown)
# VH: B1 VH with Q28T, Y58Q
# VL: B1 VL
# B44: H183/L072 VH W33L (antibody, name in Kabat numbering, V domains shown)
# VH: B1 VH with Q28T, W33L
# VL: B1 VL
# B45: H183/L072 VH Y58G (antibody, name in Kabat numbering, V domains shown)
# VH: B1 VH with Q28T, Y61G
# VL: B1 VL
# B46: H183/L072 VH Y55M (antibody, name in Kabat numbering, V domains shown)
# VH: B1 VH with Q28T, Y58M
# VL: B1 VL
# B47: H183/L072 VH T100bM (antibody, name in Kabat numbering, V domains shown)
# VH: B1 VH with Q28T, T108M
# VL: B1 VL
# Target: T1, Human CD137 ECD (human)
# T1 construct: also called 4-1BB
# T1 sequence (chain, as listed by the source limits assumed): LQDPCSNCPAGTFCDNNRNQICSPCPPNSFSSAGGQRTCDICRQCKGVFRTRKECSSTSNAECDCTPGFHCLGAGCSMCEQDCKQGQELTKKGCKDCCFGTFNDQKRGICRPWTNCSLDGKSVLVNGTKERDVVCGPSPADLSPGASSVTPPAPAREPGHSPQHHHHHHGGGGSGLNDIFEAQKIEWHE
# Assay: single mutant vs template dBBDu183H
row,fold change of affinity [fold],Binder
1,0.5,B1
2,0.2,B2
3,0.7,B3
4,1.2,B4
5,0.1,B5
6,0,B6
7,0.3,B7
8,0.4,B8
9,0,B9
10,0.9,B10
11,0,B11
12,1.5,B12
13,0.8,B13
14,2.5,B14
15,0,B15
16,0.3,B16
17,1,B17
18,1.1,B18
19,1.3,B19
20,0.3,B20
21,1.1,B21
22,0,B22
23,0,B23
24,3.3,B24

row,fold change of affinity [fold],Binder
1,0.3,B25
2,1.1,B26
3,0.2,B27
4,0.3,B28
5,0.8,B29
6,0,B30
7,0.9,B31
8,0.4,B32
9,0.4,B33
10,0.1,B34
11,0.1,B35
12,0,B36
13,0.2,B37
14,0.5,B38
15,0.2,B39
16,0.3,B40
17,0.4,B41
18,0.9,B42
19,0.2,B43
20,0,B44
21,0.2,B45
22,0.4,B46
23,0.5,B47
